Tests used:
[1] = target: recombinant human IL-18 (rhIL-18) (human) (UniProt Q14116); experiment: cell-based or functional assay
[2] = target: recombinant human IL-18 (rhIL-18) (human) (UniProt Q14116); experiment: SPR (BIAcore), biotinylated rhIL-18 on streptavidin chip, antibody in solution

B1: 125-2H (antibody, from another filing, V domains shown)
VH: EIQLQQSGPELVKPGASVKVSCKASGYSFTDYFIYWVKQSHGKSLEWIGDIDPYNGDTSYNQKFRDKATLTVDQSSTTAFMHLNSLTSEDSAVYFCARGLRFWGQGTLVTVSA
VL: DIQMTQSPSSLSASLGERVSLTCRASQDIGSKLYWLQQEPDGTFKRLIYATSSLDSGVPKRFSGSRSGSDYSLTISSLESEDFVDYYCLQYASSPYTFGGGTKLAIKR
IC50 Value, KG-1 cell-based IL-18 neutralization assay (hIFN-gamma) [1]: 0.2 nM | Kd [2]: 0.62 nM | koff [2]: 0.00011 s⁻¹ | kon [2]: 170000 M⁻¹ s⁻¹

— patent US20130101595A1
